Residue numbers refer to the chain shown, from its start. Names may count otherwise.
B1: CE115HA000 H chain altered form T57I (antibody, human IgG1, kappa, L234A L235A, N297A, name in Kabat numbering)
heavy: QVQLVESGGGVVQPGRSLRLSCAASGFTFSNAWMHWVRQAPGKGLEWVAQIKAKSNNYAIYYAESVKGRFTISRDDSKNSLYLQMNSLKTEDTAVYYCRYVHYGAYYGVDAWGQGTTVTVSSASTKGPSVFPLAPSSKSTSGGTAALGCLVKDYFPEPVTVSWNSGALTSGVHTFPAVLQSSGLYSLSSVVTVPSSSLGTQTYICNVNHKPSNTKVDKKVEPKSCDKTHTCPPCPAPEAAGGPSVFLFPPKPKDTLMISRTPEVTCVVVDVSHEDPEVKFNWYVDGVEVHNAKTKPREEQYASTYRVVSVLTVLHQDWLNGKEYKCKVSNKALPAPIEKTISKAKGQPREPQVYTLPPSRCELTKNQVSLSCAVKGFYPSDIAVEWESNGQPENNYKTTPPVLDSDGSFFLVSKLTVDKSRWQQGNVFSCSVMHEALHNHYTQKSLSLSPDYKDDDDK
chain: EPKSSDKTHTCPPCPAPELLGGPSVFLFPPKPKDTLMISRTPEVTCVVVDVSHEDPEVKFNWYVDGVEVHNAKTKPREEQYNSTYRVVSVLTVLHQDWLNGKEYKCKVSNKALPAPIEKTISKAKGQPREPQVCTLPPSRDELTKNQVSLWCLVKGFYPSDIAVEWESNGQPENNYKTTPPVLDSDGSFFLYSKLTVDKSRWQQGNVFSCSVMHEALHNRYTQKSLSLSP
light: DIVMTQSPLSLPVTPGEPASISCRSSQSLVHSNRNTYLHWYQQKPGQAPRLLIYKVSNRFSGVPDRFSGSGSGTDFTLKISRVEAEDVGVYYCGQGTQVPYTFGQGTKLEIKRTVAAPSVFIFPPSDEQLKSGTASVVCLLNNFYPREAKVQWKVDNALQSGNSQESVTEQDSKDSTYSLSSTLTLSKADYEKHKVYACEVTHQGLSSPVTKSFNRGEC
notes: one-arm antibody
B2: CE115HA000 H chain altered form W33H (antibody, human IgG1, kappa, L234A L235A, N297A, name in Kabat numbering)
heavy: B1 heavy with W33H, I60T
chain: B1 chain
light: B1 light
notes: one-arm antibody
B3: CE115HA000 H chain altered form Y55D (antibody, human IgG1, kappa, L234A L235A, N297A, name in Kabat numbering)
heavy: B1 heavy with Y58D, I60T
chain: B1 chain
light: B1 light
notes: one-arm antibody
B4: CE115HA000 H chain altered form Y59D (antibody, human IgG1, kappa, L234A L235A, N297A, name in Kabat numbering)
heavy: B1 heavy with I60T, Y62D
chain: B1 chain
light: B1 light
notes: one-arm antibody
B5: CE115HA000 H chain altered form Y58K (antibody, human IgG1, kappa, L234A L235A, N297A, name in Kabat numbering)
heavy: B1 heavy with I60T, Y61K
chain: B1 chain
light: B1 light
notes: one-arm antibody
B6: CE115HA000 H chain altered form Y58A (antibody, human IgG1, kappa, L234A L235A, N297A, name in Kabat numbering)
heavy: B1 heavy with I60T, Y61A
chain: B1 chain
light: B1 light
notes: one-arm antibody
B7: CE115HA000 H chain altered form W33Y (antibody, human IgG1, kappa, L234A L235A, N297A, name in Kabat numbering)
heavy: B1 heavy with W33Y, I60T
chain: B1 chain
light: B1 light
notes: one-arm antibody
B8: CE115HA000 H chain altered form T57N (antibody, human IgG1, kappa, L234A L235A, N297A, name in Kabat numbering)
heavy: B1 heavy with I60N
chain: B1 chain
light: B1 light
notes: one-arm antibody
B9: CE115HA000 H chain altered form W33D (antibody, human IgG1, kappa, L234A L235A, N297A, name in Kabat numbering)
heavy: B1 heavy with W33D, I60T
chain: B1 chain
light: B1 light
notes: one-arm antibody
B10: CE115HA000 H chain altered form Y58Q (antibody, human IgG1, kappa, L234A L235A, N297A, name in Kabat numbering)
heavy: B1 heavy with I60T, Y61Q
chain: B1 chain
light: B1 light
notes: one-arm antibody
B11: CE115HA000 H chain altered form Y58S (antibody, human IgG1, kappa, L234A L235A, N297A, name in Kabat numbering)
heavy: B1 heavy with I60T, Y61S
chain: B1 chain
light: B1 light
notes: one-arm antibody
B12: CE115HA000 H chain altered form W33L (antibody, human IgG1, kappa, L234A L235A, N297A, name in Kabat numbering)
heavy: B1 heavy with W33L, I60T
chain: B1 chain
light: B1 light
notes: one-arm antibody
B13: CE115HA000 H chain altered form W33A (antibody, human IgG1, kappa, L234A L235A, N297A, name in Kabat numbering)
heavy: B1 heavy with W33A, I60T
chain: B1 chain
light: B1 light
notes: one-arm antibody
B14: CE115HA000 H chain altered form Y55S (antibody, human IgG1, kappa, L234A L235A, N297A, name in Kabat numbering)
heavy: B1 heavy with Y58S, I60T
chain: B1 chain
light: B1 light
notes: one-arm antibody
B15: CE115HA000 H chain altered form Y59S (antibody, human IgG1, kappa, L234A L235A, N297A, name in Kabat numbering)
heavy: B1 heavy with I60T, Y62S
chain: B1 chain
light: B1 light
notes: one-arm antibody
B16: CE115HA000 H chain altered form Y58N (antibody, human IgG1, kappa, L234A L235A, N297A, name in Kabat numbering)
heavy: B1 heavy with I60T, Y61N
chain: B1 chain
light: B1 light
notes: one-arm antibody
B17: CE115HA000 H chain altered form Y59A (antibody, human IgG1, kappa, L234A L235A, N297A, name in Kabat numbering)
heavy: B1 heavy with I60T, Y62A
chain: B1 chain
light: B1 light
notes: one-arm antibody
B18: CE115HA000 H chain altered form Y59E (antibody, human IgG1, kappa, L234A L235A, N297A, name in Kabat numbering)
heavy: B1 heavy with I60T, Y62E
chain: B1 chain
light: B1 light
notes: one-arm antibody
B19: CE115HA000 H chain altered form Y58D (antibody, human IgG1, kappa, L234A L235A, N297A, name in Kabat numbering)
heavy: B1 heavy with I60T, Y61D
chain: B1 chain
light: B1 light
notes: one-arm antibody
B20: CE115HA000 H chain altered form Y55G (antibody, human IgG1, kappa, L234A L235A, N297A, name in Kabat numbering)
heavy: B1 heavy with Y58G, I60T
chain: B1 chain
light: B1 light
notes: one-arm antibody
B21: CE115HA000 H chain altered form V11L (antibody, human IgG1, kappa, L234A L235A, N297A, name in Kabat numbering)
heavy: B1 heavy with V11L, I60T
chain: B1 chain
light: B1 light
notes: one-arm antibody
B22: CE115HA000 H chain altered form T57K (antibody, human IgG1, kappa, L234A L235A, N297A, name in Kabat numbering)
heavy: B1 heavy with I60K
chain: B1 chain
light: B1 light
notes: one-arm antibody
B23: CE115HA000 H chain altered form W33F (antibody, human IgG1, kappa, L234A L235A, N297A, name in Kabat numbering)
heavy: B1 heavy with W33F, I60T
chain: B1 chain
light: B1 light
notes: one-arm antibody
B24: CE115HA000 H chain altered form Y58L (antibody, human IgG1, kappa, L234A L235A, N297A, name in Kabat numbering)
heavy: B1 heavy with I60T, Y61L
chain: B1 chain
light: B1 light
notes: one-arm antibody
B25: GLS3000 H27dA (Kabat) L chain altered form, one-arm antibody with CE115HA000 (antibody, human IgG1, kappa, L234A L235A, N297A, name in Kabat numbering)
heavy: B1 heavy with I60T
chain: B1 chain
light: B1 light with H31A
notes: one-arm antibody
B26: GLS3000 H27dL (Kabat) L chain altered form, one-arm antibody with CE115HA000 (antibody, human IgG1, kappa, L234A L235A, N297A, name in Kabat numbering)
heavy: B1 heavy with I60T
chain: B1 chain
light: B1 light with H31L
notes: one-arm antibody
B27: GLS3000 H27dF (Kabat) L chain altered form, one-arm antibody with CE115HA000 (antibody, human IgG1, kappa, L234A L235A, N297A, name in Kabat numbering)
heavy: B1 heavy with I60T
chain: B1 chain
light: B1 light with H31F
notes: one-arm antibody
B28: GLS3000 H27dE (Kabat) L chain altered form, one-arm antibody with CE115HA000 (antibody, human IgG1, kappa, L234A L235A, N297A, name in Kabat numbering)
heavy: B1 heavy with I60T
chain: B1 chain
light: B1 light with H31E
notes: one-arm antibody
B29: GLS3000 F55A (Kabat) L chain altered form, one-arm antibody with CE115HA000 (antibody, human IgG1, kappa, L234A L235A, N297A, name in Kabat numbering)
heavy: B1 heavy with I60T
chain: B1 chain
light: B1 light with F60A
notes: one-arm antibody
B30: GLS3000 H27dK (Kabat) L chain altered form, one-arm antibody with CE115HA000 (antibody, human IgG1, kappa, L234A L235A, N297A, name in Kabat numbering)
heavy: B1 heavy with I60T
chain: B1 chain
light: B1 light with H31K
notes: one-arm antibody
B31: GLS3000 H27dG (Kabat) L chain altered form, one-arm antibody with CE115HA000 (antibody, human IgG1, kappa, L234A L235A, N297A, name in Kabat numbering)
heavy: B1 heavy with I60T
chain: B1 chain
light: B1 light with H31G
notes: one-arm antibody
B32: GLS3000 H27dI (Kabat) L chain altered form, one-arm antibody with CE115HA000 (antibody, human IgG1, kappa, L234A L235A, N297A, name in Kabat numbering)
heavy: B1 heavy with I60T
chain: B1 chain
light: B1 light with H31I
notes: one-arm antibody
B33: GLS3000 H27dD (Kabat) L chain altered form, one-arm antibody with CE115HA000 (antibody, human IgG1, kappa, L234A L235A, N297A, name in Kabat numbering)
heavy: B1 heavy with I60T
chain: B1 chain
light: B1 light with H31D
notes: one-arm antibody

These binders were tested against T1, CD3 epsilon homodimer protein (UniProt P07766 23-126) (assay: SPR Biacore T200, CD3 epsilon homodimer on chip, antibody as analyte;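 also: homodimer amine-coupled to a CM4 sensor chip, run at 25 °C in HBS-EP+ buffer, with kinetic parameters derived in Biacore T200 Evaluation Software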).
T1 construct: also called CD3 (CD3 epsilon)
T1 sequence (P07766 23-126): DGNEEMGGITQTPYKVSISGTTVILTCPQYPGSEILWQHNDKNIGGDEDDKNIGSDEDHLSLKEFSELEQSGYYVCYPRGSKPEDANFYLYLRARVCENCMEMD

Row | Binder | KD ratio (KD of CE115HA000 / KD of altered form)
1 | B1 | 0.81
2 | B2 | 4.96
3 | B3 | 0.89
4 | B4 | 0.66
5 | B5 | 0.66
6 | B6 | 1.06
7 | B7 | 0.69
8 | B8 | 0.9
9 | B9 | 1690
10 | B10 | 1.24
11 | B11 | 1.22
12 | B12 | 56600
13 | B13 | 30
14 | B14 | 5.65
15 | B15 | 0.79
16 | B16 | 1.86
17 | B17 | 0.74
18 | B18 | 0.61
19 | B19 | 4.81
20 | B20 | 0.99
21 | B21 | 0.83
22 | B22 | 1.22
23 | B23 | 0.66
24 | B24 | 1.21

What follows are binders tested against T2, CD3 epsilon homodimer protein (UniProt P07766 23-126) (assay: SPR Biacore T200, CD3 epsilon homodimer immobilized; vs unaltered GLS3000;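 also: antibody variants flowed as analyte over CD3 epsilon homodimer amine-coupled to a CM4 chip, at 25 °C in HBS-EP+ running buffer, fitted with Biacore T200 Evaluation Software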).
T2 construct: construct not described; homodimer as printed; also called CD3 (CD3 epsilon)
T2 sequence (P07766 23-126): as above

Row | Binder | KD ratio to GLS3000 (Affinity up)
25 | B25 | 2.57
26 | B26 | 3.37
27 | B27 | 2.05
28 | B28 | 42.3
29 | B29 | 1.16
30 | B30 | 3.8
31 | B31 | 3.51
32 | B32 | 7.77
33 | B33 | 13600

— US20240270846A1 (published 2024)
